Experimental findings from paper PMC7618375, “Structure and Methyl-lysine Binding Selectivity of the HUSH Complex Subunit MPP8” (Journal of molecular biology, 2024) are described below.

No end group written: not given here. Me2 = dimethyl on the lysine side-chain amine

Data set [1] has as its target T1, MPP8 chromodomain (CD, residues 55-116) (human, UniProt Q99549 55-116).
T1 construct: MPP8 (M-phase phosphoprotein 8), human, chromodomain, residues 55-116, UniProt Q99549; Cloned in pET15b with a TEV site (ENLYFQG) in place of the thrombin site; also called MPP8 CD; M-phase phosphoprotein 8 chromodomain; source: E. coli BL21 (DE3), purified (Ni-NTA, Mono Q, Superdex 75 SEC)
T1 sequence (looked up): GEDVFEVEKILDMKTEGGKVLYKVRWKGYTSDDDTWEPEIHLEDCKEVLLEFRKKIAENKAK
The experiment in a line: ITC; 750 uM peptide in the syringe titrated into 50 uM MPP8 CD in the cell; 50 mM HEPES pH 7.4, 0.1 M NaCl, 0.5 mM TCEP, 25 °C; single-site model. The following applies: both partners purified.

Data set [2] deals with the molecule itself. The experiment in a line: crystal structure; MPP8 CTD, X-ray, 3.04 Å, eight chains in the asymmetric unit; crystals at 18 °C, PEG 4000/1,2,6-hexanetriol, pH 8.5.

As to TKQTARK(Me2)STGGK [Histone H3 peptide dimethylated at lysine 9], the dissociation constant Kd in data set [1] amounted to 1700 nM.

B1: MPP8 C-terminal domain (CTD, residues 547-860) (domain or fragment, human, UniProt Q99549 547-860, looked up)
chain: DFQKHLDGKDENFAATDAIPSNVLRDAVKNGDYITVKVALNSNEEYNLDQEDSSGMTLVMLAAAGGQDDLLRLLITKGAKVNGRQKNGTTALIHAAEKNFLTTVAILLEAGAFVNVQQSNGETALMKACKRGNSDIVRLVIECGADCNILSKHQNSALHFAKQSNNVLVYDLLKNHLETLSRVAEETIKDYFEARLALLEPVFPIACHRLCEGPDFSTDFNYKPPQNIPEGSGILLFIFHANFLGKEVIARLCGPCSVQAVVLNDKFQLPVFLDSHFVYSFSPVAGPNKLFIRLTEAPSAKVKLLIGAYRVQLQ
notes: MPP8 (M-phase phosphoprotein 8), human, C-terminal domain (ankyrin repeats and PINIT-like domain), residues 547-860, UniProt Q99549; residues 547-562 disordered in the crystal, model spans 563-860; also called MPP8 CTD; source: E. coli BL21 (DE3), purified (Ni-NTA, thrombin cleavage, Resource Q, Superdex 200 SEC); not shown: His6, N-terminal, cleaved
Regarding B1, the “stoichiometry N” value in data set [2] stood at 2.

As usually defined, the Kd is a measure of binding affinity in units of concentration. Read a low Kd as higher affinity. As usually defined, the stoichiometry N is the number of molecules, sites or subunits per partner or assembly.
